Literature values, collected in publication PMC3713533.
pKd: −log10 of the molar value.

Biological target: VWF73 VWF73 (Homo sapiens) (UniProt P04275)
Chain of UniProt P04275 (P04275 1596-1668): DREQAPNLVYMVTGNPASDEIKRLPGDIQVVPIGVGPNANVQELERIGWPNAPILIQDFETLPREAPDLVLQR

pKd: 6.87
Substance: ADAMTS13 TSP1 repeat 1 (from UniProt Q76LX8)
